# Data from patent US20250282887A1 (Amgen, published 2025).
# T1: Human MAGEB2 (Melanoma-associated antigen B2) (human, UniProt O15479 1-319)
# T1 construct: Intracellular antigen detected by IHC in FFPE material: CHO cells transfected with human MAGEB2 (mCherry vector with Myc/DDK tags, or ORF without tags)
# T1 sequence: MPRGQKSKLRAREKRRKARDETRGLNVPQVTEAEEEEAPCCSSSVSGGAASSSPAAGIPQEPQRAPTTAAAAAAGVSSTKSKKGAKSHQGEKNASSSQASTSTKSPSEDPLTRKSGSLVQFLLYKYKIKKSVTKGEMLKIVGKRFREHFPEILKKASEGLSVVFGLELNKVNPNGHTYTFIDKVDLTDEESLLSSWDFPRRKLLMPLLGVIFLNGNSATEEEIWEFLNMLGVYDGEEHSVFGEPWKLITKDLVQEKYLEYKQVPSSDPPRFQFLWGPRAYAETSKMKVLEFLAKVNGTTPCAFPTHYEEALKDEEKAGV
# T2: human MAGEB16 (human, UniProt A2A368 1-324)
# T2 construct: whole, on cells; FFPE cell pellets
# T2 sequence (looked up): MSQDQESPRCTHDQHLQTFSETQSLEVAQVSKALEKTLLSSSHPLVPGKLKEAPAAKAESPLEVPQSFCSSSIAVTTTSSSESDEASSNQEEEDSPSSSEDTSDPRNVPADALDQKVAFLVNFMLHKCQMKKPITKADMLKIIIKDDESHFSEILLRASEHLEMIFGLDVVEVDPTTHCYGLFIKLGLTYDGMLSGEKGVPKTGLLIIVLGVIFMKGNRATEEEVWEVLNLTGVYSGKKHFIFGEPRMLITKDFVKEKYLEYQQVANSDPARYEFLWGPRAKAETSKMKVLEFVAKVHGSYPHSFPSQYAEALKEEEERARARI
# Tests used:
# [1] = target: T1, Human MAGEB2 (Melanoma-associated …); assay: IHC on FFPE NCI-H82 cells (endogenous MAGEB2)
# Experimental: (§1) FFPE samples were sectioned at 4 μm and mounted on positive charged glass slides. After mounting, paraffin sections were air-dried at room temperature. FFPE TMA samples were received as freshly sectioned and mounted on glass slides. The fully automated IHC assay was performed on a Discovery Ultra Stainer (Ventana Medical Systems, Tucson, AZ) using Ventana Anti-Rabbit HQ (cat #760-4815), Ventana Anti-HQ HRP (cat #760-4820), and Ventana Antibody Diluent with Casein (cat #760-219) (Ventana Medical Systems, Tucson, AZ). The slides were baked on the Discovery Ultra Stainer at 60° C. for 8 minutes, de-paraffinized with Ventana Discovery wash (cat #950-510) for 3 cycles (8 minutes each) at 69° C., and underwent cell conditioning (target retrieval) at 95° C. for 16 minutes (for cell arrays) or 32 minutes (tissues or TMAs) in CC1 buffer (cat #950-500). Following this, slides were incubated with Background Sniper (cat #BS966M, Biocare Medical, Pacheco, CA) in a Ventana Option Prep kit (cat #771-751) for 28 minutes, incubated with CM inhibitor (a part of the Ventana DAB kit cat #760-159) for 12 minutes, and incubated for 1 h at RT with MAGE-B2 antibody diluted with Ventana diluent with Casein in a Ventana Prep kit (cat #770-001) (working concentration at 0.1 μg/ml for cell pellet, or 1-5 ug/ml for tissues) or with a matched concentration of isotype control Rabbit IgG1 antibody. Following this, slides were incubated with the Ventana Anti-Rabbit HQ (cat #760-4815) for 28 minutes at RT, Ventana Anti-HQ HRP (cat #760-4820) for 28 minutes at RT, and signals detected with Ventana DAB chromogen kit (cat #760-159) for 5 minutes at RT. Slides were counterstained with Ventana Hematoxylin II (cat #5266726001) for 8 minutes and Ventana Bluing reagent (cat #526676900) for 4 minutes. Slides were coverslipped and digitized using an Aperio AT2 scanner (Leica Biosystems Inc, Buffalo Grove, IL).
# human MAGEA6 = target: T3, human MAGEA6 (human, UniProt P43360 1-314); assay: IHC, FFPE CHO cells transfected with human MAGEA6
# T3 construct: whole, on cells; FFPE cell pellets
# Experimental: as §1
# human MAGEB16 = target: T2, human MAGEB16; assay: IHC, FFPE CHO cells transfected with human MAGEB16
# Description: Negative control cells included parental Chinese hamster ovary (CHO) cells, CHO cells stably transfected with mCherry Vector Control (minus Myc/DDK tags), CHO cells stably transfected with mCherry-human DCAF4L2 (plus Myc/DDK tags). The cross-reactivity control cells included CHO cells transfected with mCherry Vector Control (plus Myc/DDK tags) with one of the human MAGE-B or MAGE-A family members (MAGEA1, MAGEA2, MAGEA3, MAGEA4, MAGEA5, MAGEA6, MAGEA8, MAGEA9, MAGEA11, MAGEA12, MAGEB1, MAGEB3, MAGEB4, MAGEB5, MAGEB6, MAGEB10, MAGEB16, MAGEB17, MAGEB18). Positive control cell lines included CHO cells transfected with mCherry Vector (plus Myc/DDK tags) with human MAGE-B2 or CHO cells transfected with mCherry Vector (open reading frame (ORF); minus Myc/DDK tags) with human MAGEB2, and thirteen human cancer cell lines with known endogenous RNA expression level of MAGEB2 (U266B1, T98G, KMM-1, U20S, CFPAC-1, SCaBER, UACC-257, CFPAC-1, VMRC-LCD, NCI-H1703, UM-UC-3, NCI-H1395, NCIH82).
# as §1, with “antibody.” for “antibody. Following this, slides were incubated with the Ventana Anti-Rabbit HQ (cat #760-4815) for 28 minutes at RT, Ventana Anti-HQ HRP (cat #760-4820) for 28 minutes at RT, and signals detected with Ventana DAB chromogen kit (cat #760-159) for 5 minutes at RT. Slides were counterstained with Ventana Hematoxylin II (cat #5266726001) for 8 minutes and Ventana Bluing reagent (cat #526676900) for 4 minutes. Slides were coverslipped and digitized using an Aperio AT2 scanner (Leica Biosystems Inc, Buffalo Grove, IL).”
# T3 sequence (P43360 whole entry): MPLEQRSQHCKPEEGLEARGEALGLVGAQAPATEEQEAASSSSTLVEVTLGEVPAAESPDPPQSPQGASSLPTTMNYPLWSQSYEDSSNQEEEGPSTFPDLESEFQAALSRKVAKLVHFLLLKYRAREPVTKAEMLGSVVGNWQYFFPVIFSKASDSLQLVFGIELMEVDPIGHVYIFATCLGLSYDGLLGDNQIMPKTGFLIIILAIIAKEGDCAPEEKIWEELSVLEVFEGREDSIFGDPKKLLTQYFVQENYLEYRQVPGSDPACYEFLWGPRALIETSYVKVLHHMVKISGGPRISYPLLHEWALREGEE
Binder,IHC % Frequency [1] [%],IHC Intensity [1],binding result (human MAGEA6),binding result (human MAGEB16)
"1I14 (antibody, V domains shown, also called MAGE-B2 (1i14)) VH: QSVEESGGRLVTPGTPLTLTCTISGFSLSSYAMSWVRQAPGKGLEWIGSIGGGGSAVYASWAKGRFTISKTSTTVDLRITSPTTEDTAMYFCGRGFYSIDLWGPGTLVTVSS VL: DVVMTQTPASVEATVGGTVTIKCQSSQSVYDNNALAWYQQNAGQRPRLLIYGASTLASGVPSRFSASGSGTEFTLTISDLECADAATYYCQCTYYVSSYQNDFGGGTEVVVKG",0,0,no binding (tested: 0.1 µg/ml),no binding (tested: 0.1 µg/ml)
"1C3 (antibody, V domains shown, also called MAGE-B2 (IC3); anti-MAGEB2 antibody 1C3) VH: QSLEESGGGLVQPEGSLTLTCTAFGVTLTNYYICWVRQAPGKGLEWVGCIDNANGRTYYASWAKGRFTISKTSSTTGTLQMTSLTAADTATYFCARSLATPLWGPGTLVTVSS VL: DIVMTQTPSSVEAAVGGTVTIKCQASQNISSYLAWYQQKPGQPPKLLIYRASTLASGVPSRFKGSGSGTQFTLTISDLECADAATYYCQSYDDSRSSNFFYAFGGGTEVVVKG",0,1,no binding (tested: 0.1 µg/ml),no binding (tested: 0.1 µg/ml)

# More lines, now with the values ahead:
IHC % Frequency [1] [%],IHC Intensity [1],binding result (human MAGEA6),binding result (human MAGEB16),Binder
0,0,no binding (tested: 0.1 µg/ml),no binding (tested: 0.1 µg/ml),"4G17 (antibody, IgG1, V domains shown, Rabbit monoclonal IgG1; Tested as supernatant and as small batch purified antibody; also called MAGE-B2 (4G17); anti-MAGEB2 antibody 4G17) VH: QSLEESGGGLVQPEGSLTLTCTASGVTLSNYYICWVRQAPGKGLEWIGCIDNVNGRTYYASWAKGRFTISKTSSTTGTLQMTSLTAADTATYFCARSLATPLWGPGTLVTVSS VL: DIVMTQTPASVEAAVGGTVTIKCQASQNIDSYLAWYQQKPGQPPKLLIYRASTLASGVPSRFKGSGSGTEFTLTISDLECADAATYYCQSYDDSRSSSFFYGFGGGTEVVVK"
0,0,no binding (tested: 0.1 µg/ml),no binding (tested: 0.1 µg/ml),"1J15 (antibody, IgG1, V domains shown, Rabbit monoclonal IgG1; Tested as supernatant and as small batch purified antibody; also called MAGE-B2 (IJ15); anti-MAGEB2 antibody 1J15) VH: QSLEESGGGLVQPEGSLTLTCTAFGFTLNNYYICWVRQAPGKGLEWIACIDNANGRTYYASWAKGRFTISKTSSTTVTLQMTSLTAADTATYFCARSLSTPLWGPGTLVTVSS VL: DIVMTQTPASVEAAVGGTVTIKCQASQSISSYLSWYQQKPGQPPKLLIYRASTLASGVPSRFRGSGSGTQFTLTISDLECADAATYYCQSYDDSSDNNFFYGFGGGTEVVVR"
